Sequences and labels used below:
B1: THAP1; numbered along this chain (parent)
chain: MVQSCSAYGCKNRYDKDKPVSFHKFPLTRPSLCKEWEAAVRRKNFKPTKYSSICSEHFTPDCFKRECNNKLLKENAVPTIFLCTEPHDKKEDLLEPQEQLPPPPLPPPVSQVDAAIGLLMPPLQTPVNLSVFCDHNYTVEDTMHQRKRIHQLEQQVEKLRKKLKTAQQRCRRQERQLEKLKEVVHFQKEKDDVSERGYVILPNDYFEIVEVPA

Variants of B1 are the subject of this data set. The experiment in a line: THAP1 transcriptional activity (GFP+/GFP- enrichment relative to wild-type constructs) (ratio to WT); higher = more THAP1 activity (PSMB5 reporter activation). The following applies: with PSMB5 promoter-GFP reporter. An outline of the steps:
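Variants were counted by Illumina sequencing of genomic DNA amplicons from BFP+ cells sorted into GFP-bright and GFP-dim bins five days after lentiviral transduction, in duplicate at MOI ~0.3. The library changed each of residues 2–213 of human THAP1 to all 20 amino acids and was introduced into THAP1-knockout HEK-293T cells with mClover3 knocked in at endogenous PSMB5. Activity equals the replicate-mean bright/dim read fold change over the mean of wild-type synonymous constructs.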
With MVQSCSAYGCKNRYDKDKPVSFHKFPLTRPSLCKEWEAAVRRKNFKPTKYSSICSKHFTPDCFKRECNNKLLKENAVPTIFLCTEPHDKKEDLLEPQEQLPPPPLPPPVSQVDAAIGLLMPPLQTPVNLSVFCDHNYTVEDTMHQRKRIHQLEQQVEKLRKKLKTAQQRCRRQERQLEKLKEVVHFQKEKDDVSERGYVILPNDYFEIVEVPA [E56K], the THAP1 transcriptional activity is 0.472. Next, MVQSCSAYGCKNRYDKDKPVSFHKFPLTRPSLCKEWEAAVRRKNFKPTKYSSICSEHFTPDCFKRECNNKLLKENAVPQIFLCTEPHDKKEDLLEPQEQLPPPPLPPPVSQVDAAIGLLMPPLQTPVNLSVFCDHNYTVEDTMHQRKRIHQLEQQVEKLRKKLKTAQQRCRRQERQLEKLKEVVHFQKEKDDVSERGYVILPNDYFEIVEVPA [T79Q]: 0.296. As for MVQSCSAYGCKNRYDKDKPVSFHKFPLTRPSLCKEWEAAVRRKNFKPTKYSSICSEHFTPDCFKRECNNKLLKENAVPTIFLCTEPHDKKEDLLIPQEQLPPPPLPPPVSQVDAAIGLLMPPLQTPVNLSVFCDHNYTVEDTMHQRKRIHQLEQQVEKLRKKLKTAQQRCRRQERQLEKLKEVVHFQKEKDDVSERGYVILPNDYFEIVEVPA [E95I], the figure is 1.13; as for MVQSCSAYGCKNRYDKDKPVSFHKFPLTRPSLCKEWEAAVRRKNFKPTKYSSICSEHFTPDCFKRECNNKLLKENAVPTIFLCTEPHDKKPDLLEPQEQLPPPPLPPPVSQVDAAIGLLMPPLQTPVNLSVFCDHNYTVEDTMHQRKRIHQLEQQVEKLRKKLKTAQQRCRRQERQLEKLKEVVHFQKEKDDVSERGYVILPNDYFEIVEVPA [E91P], 0.793; as for MVQSCSAYGCKNRYDKDKPVSFHKFPLTRPSLCKEWEAAVRRKNFKPTKYSSICSEHFTPDCFKRECNNKLLKENAVPTIFLCTEPHDKKEDLLEPQEQLPPPPLPPPVSQVDAAIGLLMPPLQTPVNLSVFCDHNYTVEDTMHQRKRIHQLEQQVEKLRKKLKTAQQRCRRQERQLEKLKEVVHFQKEKDDVSERIYVILPNDYFEIVEVPA [G197I], 1.03. As for MVQSCSAYGCKNRYDKDKPVGFHKFPLTRPSLCKEWEAAVRRKNFKPTKYSSICSEHFTPDCFKRECNNKLLKENAVPTIFLCTEPHDKKEDLLEPQEQLPPPPLPPPVSQVDAAIGLLMPPLQTPVNLSVFCDHNYTVEDTMHQRKRIHQLEQQVEKLRKKLKTAQQRCRRQERQLEKLKEVVHFQKEKDDVSERGYVILPNDYFEIVEVPA [S21G], the figure is 0.164; as for MVQSCSAYGCKNRYDKDKPVSFHKFPLTRPSLCKEWEAAVRRKNFKPTKYSSICSEHFTPDCFKRECNNKLLKENAVPTIFLCTEPHDKKEDLLEPQEQLPPPPLPPPVSQVDAAIGLLMPPLQTPVNLSVFCDHNYTVEDDMHQRKRIHQLEQQVEKLRKKLKTAQQRCRRQERQLEKLKEVVHFQKEKDDVSERGYVILPNDYFEIVEVPA [T142D], 0.738; as for MVQSCSAYGSKNRYDKDKPVSFHKFPLTRPSLCKEWEAAVRRKNFKPTKYSSICSEHFTPDCFKRECNNKLLKENAVPTIFLCTEPHDKKEDLLEPQEQLPPPPLPPPVSQVDAAIGLLMPPLQTPVNLSVFCDHNYTVEDTMHQRKRIHQLEQQVEKLRKKLKTAQQRCRRQERQLEKLKEVVHFQKEKDDVSERGYVILPNDYFEIVEVPA [C10S], 0.308.

On to MVQSCSAYGCKNRYDKDKPVSFHKFPLTRPSLCKEWEAAVRRKNFKPTKYSSICSEHFTPDCFKRECNNKLLKENAVPTIFLCTDPHDKKEDLLEPQEQLPPPPLPPPVSQVDAAIGLLMPPLQTPVNLSVFCDHNYTVEDTMHQRKRIHQLEQQVEKLRKKLKTAQQRCRRQERQLEKLKEVVHFQKEKDDVSERGYVILPNDYFEIVEVPA [E85D], for which the THAP1 transcriptional activity amounted to 0.708. As for MVQSCSAYGCKNRYDKDKPVSFHKFPLTRPSLCKEWEAAVRRKNFKPTKYSSICSEHFTPDCFKRECNNKLLKENAVVTIFLCTEPHDKKEDLLEPQEQLPPPPLPPPVSQVDAAIGLLMPPLQTPVNLSVFCDHNYTVEDTMHQRKRIHQLEQQVEKLRKKLKTAQQRCRRQERQLEKLKEVVHFQKEKDDVSERGYVILPNDYFEIVEVPA [P78V], the figure is 0.191; as for MVQSCSAYGCKNRYDKDKPVSFHKFPLTRPSLCKEWEAAVRRKNFKPTKYSSICSEHFTPDCFKRECNNKLLKENAVPTIFLCTEPHDKKEDLLEPQEQLPPPPLPPPVSQVDAAIGLLMPPLQTPVNLSVFCDHNYTVEDTMHQRKRIHQLEQQVEKLRKKLKTAQQRCRRQERQYEKLKEVVHFQKEKDDVSERGYVILPNDYFEIVEVPA [L177Y], 0.528.

On to MVQSCSAYGCKNRYDKDKPVSFHKFPLTRPSLCKEWEAAVRRKNFKPTKYSSICSEHFTPDCFKRECNNKLLKENAVPTIFLCTEPHDKKEDLLEPQEQLPPPPLPPPVSQVDAAIGLLMPPLQTPVNLSVFCDHNYTVEDTMHQRKRIHQLEQQVEKLRKKLKTAQQRCRRQERQLEKLKEVVHFQKNKDDVSERGYVILPNDYFEIVEVPA [E189N], for which the THAP1 transcriptional activity was found to be 0.878. As for MVQSCSAYGCKNRYDKDKPVSFHKFPLTRPSLCKEWEAAVRRKNFKPTKYSSICSEHFTPDCFKRECNNKLLKENAVPTIFLCTEPHDKKEDLLEPQEQLPPPPLPQPVSQVDAAIGLLMPPLQTPVNLSVFCDHNYTVEDTMHQRKRIHQLEQQVEKLRKKLKTAQQRCRRQERQLEKLKEVVHFQKEKDDVSERGYVILPNDYFEIVEVPA [P107Q], the figure is 1.2; as for MVQSCSAYGCKNRYDKDKPVSFHKFPLTRPSLCKEWEAAVRRKNFKPTKYSSICSEHMTPDCFKRECNNKLLKENAVPTIFLCTEPHDKKEDLLEPQEQLPPPPLPPPVSQVDAAIGLLMPPLQTPVNLSVFCDHNYTVEDTMHQRKRIHQLEQQVEKLRKKLKTAQQRCRRQERQLEKLKEVVHFQKEKDDVSERGYVILPNDYFEIVEVPA [F58M], 0.105; as for MVQSCSAYGCKNRYDKDKPVSFHKFPLTRPSLCKEWEAAVRRKNFKPTKYSSICSEHFTPDCFKRECNNKLLKENAVPTIFLCTEPHDKKEDLLEPQEQLPPPPLPPPVSQVDAAIGLLMPPLQTPVNLSVFCDHNYTVEDTMHQRKRIHQLEQQVEKVRKKLKTAQQRCRRQERQLEKLKEVVHFQKEKDDVSERGYVILPNDYFEIVEVPA [L159V], 0.327. As for MVQSCSAYGCKNRYDKDKPVSFHKFPLTRPSLCKEWEAAVRRKNFKPTKYSSICSEHFTPDCFKRECNNKLLKENAVPTIFLCTEPHDKKEDLLEPQEQLPPPPLPPPVSQVDAAIGLLMPPLQTPVNLSVFCDHNYTVEDTMHQAKRIHQLEQQVEKLRKKLKTAQQRCRRQERQLEKLKEVVHFQKEKDDVSERGYVILPNDYFEIVEVPA [R146A], the figure is 0.79; as for MVQSCSAYGCKNRYDKDAPVSFHKFPLTRPSLCKEWEAAVRRKNFKPTKYSSICSEHFTPDCFKRECNNKLLKENAVPTIFLCTEPHDKKEDLLEPQEQLPPPPLPPPVSQVDAAIGLLMPPLQTPVNLSVFCDHNYTVEDTMHQRKRIHQLEQQVEKLRKKLKTAQQRCRRQERQLEKLKEVVHFQKEKDDVSERGYVILPNDYFEIVEVPA [K18A], 0.356.

Regarding MVQSCSAYGCKNRYDKDKPVSAHKFPLTRPSLCKEWEAAVRRKNFKPTKYSSICSEHFTPDCFKRECNNKLLKENAVPTIFLCTEPHDKKEDLLEPQEQLPPPPLPPPVSQVDAAIGLLMPPLQTPVNLSVFCDHNYTVEDTMHQRKRIHQLEQQVEKLRKKLKTAQQRCRRQERQLEKLKEVVHFQKEKDDVSERGYVILPNDYFEIVEVPA [F22A], the THAP1 transcriptional activity stood at 0.115. Next, MVQSCSAYGCKNRYDKDKPVSFHKFPLTRPSLCKEWEAAVRRKNFKPTKYSSICSEHFTPDCFKRECNNKLLKENAVPTIFLCTEPHDKKEDLLEPQEQLPPPPLPPPVSQVDAAIGLLMPPLQTPVNLSVFCDHNYTVEDTMHQRKRIHQLEQQVEKLRKKLKTAQQRCRRQERQLEKLKEVVHFQKEKDDVSERGYVILPIDYFEIVEVPA [N203I]: 1.01; MVQSCSAYGCKNRYDKDKPVSFHKFPLTRPSLCKEWEAAVRRKNFKPTKYSSICSEHFTPDCFKRECNNKLLKENAVPTIFLCTEPHDKKEDLLEPQEQLPPNPLPPPVSQVDAAIGLLMPPLQTPVNLSVFCDHNYTVEDTMHQRKRIHQLEQQVEKLRKKLKTAQQRCRRQERQLEKLKEVVHFQKEKDDVSERGYVILPNDYFEIVEVPA [P103N]: 0.938. As for MVQSCSAYGCKNRYDKDKPVSFHKFPLTRPSLCKEWEAAVRRKNFKPTKYSSICSEHFTPDCFKRECNNKLLKENAVPTIFLCTEPHDKKEDLLEPQEQLPPPPLPPPVSQVDAAIGLLMPPLQTPVNLSVFCDHNYTVEDTMHDRKRIHQLEQQVEKLRKKLKTAQQRCRRQERQLEKLKEVVHFQKEKDDVSERGYVILPNDYFEIVEVPA [Q145D], the figure is 0.415; as for MVQSCSAYGCKNRYDKDKPVSFHKFPLTRPSLCKEWEAAVRRKNFKPTKYSSICSEHFTPDCFKRECNNKLLKENAVPTIQLCTEPHDKKEDLLEPQEQLPPPPLPPPVSQVDAAIGLLMPPLQTPVNLSVFCDHNYTVEDTMHQRKRIHQLEQQVEKLRKKLKTAQQRCRRQERQLEKLKEVVHFQKEKDDVSERGYVILPNDYFEIVEVPA [F81Q], 0.206. Consider MVQSCSAYGCKNRYDKDKPVSFHKFPLTRPSLCKEWEAAVRRKNFKPTKYSSICSEHFTPDCFKRECNNKLLKENAVPTIELCTEPHDKKEDLLEPQEQLPPPPLPPPVSQVDAAIGLLMPPLQTPVNLSVFCDHNYTVEDTMHQRKRIHQLEQQVEKLRKKLKTAQQRCRRQERQLEKLKEVVHFQKEKDDVSERGYVILPNDYFEIVEVPA [F81E], for which the THAP1 transcriptional activity is 0.405.

Consider MVQSCSAYGCKNRYDKDKPVSFHKFPLTRPSLCKEWEAAVRRKNFKPTKYSSICSEHFTPDCFKRECNNKLLKENAVPTIFLCTEPHDKKEDLLERQEQLPPPPLPPPVSQVDAAIGLLMPPLQTPVNLSVFCDHNYTVEDTMHQRKRIHQLEQQVEKLRKKLKTAQQRCRRQERQLEKLKEVVHFQKEKDDVSERGYVILPNDYFEIVEVPA [P96R], for which the THAP1 transcriptional activity worked out at 1.45. Next, MVQSCSAYGCKNRYDKDKPVSFHKFPLTRPSLCKEWEAAVRRKNFKPTKYSSMCSEHFTPDCFKRECNNKLLKENAVPTIFLCTEPHDKKEDLLEPQEQLPPPPLPPPVSQVDAAIGLLMPPLQTPVNLSVFCDHNYTVEDTMHQRKRIHQLEQQVEKLRKKLKTAQQRCRRQERQLEKLKEVVHFQKEKDDVSERGYVILPNDYFEIVEVPA [I53M]: 0.194; MVQSCSAYGCKNRYDKDKPVSFHKFPLTRPSLCKEWEAAVRRKNFKPTKYSSICSEHFTPDCFKRECNNKLLKENAVPTIFLCTEPHDKKEDLLEPQEQLPPPPLPPPVSQVDAAIGLLMPPLQTPVNLSVFCDHNYTVEDTMHQRKRIHQLEQQVEKLRKKLKTAQQRCRRQERQLEKLKEVVHFQKEEDDVSERGYVILPNDYFEIVEVPA [K190E]: 0.903; MVQSCSAYGCKNRYDKDKPVSFHKFPLTRPSLCKEWEAAVRRKNFKPTKYSSICSEHFTPDCFKRECNNKLLKTNAVPTIFLCTEPHDKKEDLLEPQEQLPPPPLPPPVSQVDAAIGLLMPPLQTPVNLSVFCDHNYTVEDTMHQRKRIHQLEQQVEKLRKKLKTAQQRCRRQERQLEKLKEVVHFQKEKDDVSERGYVILPNDYFEIVEVPA [E74T]: 0.334.

As for MVQSCSAYGCKNRYDKDKPVSFHKFPLTRPSLCKEWEAAVRRKNFKPTKYSSICSEHFTPDCFKRECNNKLLKENAVPTIFLCTEPHDKKEDLLEPQEQLPPPPLPPPVSQVDAAIGLLMPPLQTPVNLSVFCDHNYTVEDTMHQRKRIHQLEQQVEKLRKKLKTAQQRCRRFERQLEKLKEVVHFQKEKDDVSERGYVILPNDYFEIVEVPA [Q173F], the THAP1 transcriptional activity came out at 0.425.
